Test results reported in patent US5106621A, “Cysteine proteinases, production and use” (priority 1987, dated 1992).

B1: ananain, cysteine proteinase purified from pineapple (Ananas comosus) stem extract (Ananas comosus) (protein)
chain: VPQSIDWRDSGAVTSVKNQGRCGSCWAFASIATVESIYKIKRGNLVSLSEQQVLDCAVSYGCKGGWINKAYSFIISNKGVASAAIYPYKAAKGTCKTNGVPNSAYITRYTYVQRNNERNMMYAVSNQPIAAALDASGNFQHYKRGVFTGPCGTRLNHAIVIIGYGQDSSGKKFWIVRNSWGAGWGEGGYIRLARDVSSSFGLCGIAMDPLYPTLQS
notes: from tissue; host or cells: pineapple stem extract (from the earlier reading)
B2: bromelain (stem bromelain, EC 3.4.22.4), affinity purified from Sigma bromelain, pineapple (Ananas comosus) stem (Ananas comosus) (protein)
chain: AVPQSIDWRDYGAVTSVKNQNPCGACWAFAAIATVESIYKIKKGILEPLSEQQVLDCAKGYGCKGGWEFRAFEFIISNKGVASGAIYPYKAAKGTCKTDGVPNSAYITGYARVPRNNESSMMYAVSKQPITVAVDANANFQYYKSGVFNGPCGTSLNHAVTAIGYGQDSIIYPKKWGAKWGEAGYIRMARDVSSSSGICGIAIDPLYPTLEE
notes: purchased Sigma B 5144

Tests used:
Assay type in all cases: biochemical, Ananas comosus
[1] = substrate: Cc1cc(=O)oc2cc(NC(=O)[C@H](CCCNC(=N)N)NC(=O)[C@H](CCCNC(=N)N)NC(=O)OCc3ccccc3)ccc12; assay: Kinetics of hydrolysis of fluorimetric substrates by ananain; details: other: ananain, 40° C., pH 6.8 buffer, 0.007% Brij 35, substrate 2 to 100 μM, spread = standard deviation
Protocol: (§1) used for this example was obtained by the method described in Example 1: the bromelain used was as in Example 4. For the determination of kinetic parameters Km (the Michaelis Constant) and kcat (the turnover number) of hydrolysis of Z-Phe-Arg-NHMec and Z-Arg-Arg-NHMec, measurements of the initial rates of reaction were made in 0.007% Brij 35 at 40° C. The enzymes (1×10^-11 M to 1×10^-9 M final concentration of activatable enzyme as determined by active-site titration) were activated in 0.75 ml of 4-fold concentrated buffer in a fluorimetric cuvette at 40° C. for 2 min, to which pre-warmed 0.01% Brij was added, followed by substrate to a final volume of 3.0 ml. Continuous rate assays were carried out using a temperature-controlled cell, with stirring, in the fluorimeter ([…]), standardized so that 1000 arbitrary units corresponded to 0.2 μM coumarin (i.e. at most, 10% substrate hydrolysis). Substrate concentration(s) used were in the range 2 to 100 μM. Visual inspection of the data was performed using the direct linear plot and plots of s/v against s (v being the rate of product formation). (Henderson, P. J. F., Techniques in Protein and Enzyme Biochemistry, B113, 1-43, 1978). Values of Km and Vmax (the maximum rate of product formation at a given enzyme concentration) were calculated by the method of Wilkinson, G. N., Biochem. J., 80, 324-332, 1961.

[2] = substrate: Cc1cc(=O)oc2cc(NC(=O)[C@H](CCCNC(=N)N)NC(=O)[C@H](Cc3ccccc3)NC(=O)OCc3ccccc3)ccc12; assay: as above; details: other: ananain, 40° C., pH 6.8 buffer, 0.007% Brij 35, substrate 2 to 100 μM, spread = standard deviation
Protocol: as §1

[3] = substrate: Cc1cc(=O)oc2cc(NC(=O)[C@H](CCCNC(=N)N)NC(=O)[C@H](CCCNC(=N)N)NC(=O)OCc3ccccc3)ccc12; assay: Kinetics of hydrolysis of fluorimetric substrates by bromelain; details: other: bromelain, 40° C., pH 6.8 buffer, 0.007% Brij 35, substrate 2 to 100 μM, spread = standard deviation
Protocol: (§2) The enzymes used were affinity purified ananain and comosain (Examples 1 and 2) and bromelain, which was obtained from chromatography-purified Sigma bromelain (catalogue number B 5144) by affinity chromatography on a column of Sepharose-aminohexanoyl-Gly-Phe-Gly-semicarbazide, followed by dialysis into 1 mM EDTA and lyophilisation. The proteinases were standardised by E-64 titration as described in Example 8.
(§3) Ananain used for this example was obtained by the method described in Example 1: the bromelain used was as in Example 4.
as §1, with “For” for “used for this example was obtained by the method described in Example 1: the bromelain used was as in Example 4. For”

[4] = substrate: Cc1cc(=O)oc2cc(NC(=O)[C@H](CCCNC(=N)N)NC(=O)[C@H](Cc3ccccc3)NC(=O)OCc3ccccc3)ccc12; assay: as above; details: other: bromelain, 40° C., pH 6.8 buffer, 0.007% Brij 35, substrate 2 to 100 μM, spread = standard deviation
Protocol: as §2, §3
as §1, with “For” for “used for this example was obtained by the method described in Example 1: the bromelain used was as in Example 4. For”

Protein	Km [1]	kcat [1]	kcat/Km [1]	Km [2]	kcat [2]	kcat/Km [2]	Km [3]	kcat [3]	kcat/Km [3]	Km [4]	kcat [4]	kcat/Km [4]
B1	44.5 (±9.0) μM	0.323 (±0.03) s^-1	0.007 (±0.002) s^-1 · μM^-1	48.3 (±4.8) μM	7.07 (±0.3) s^-1	0.146 (±0.02) s^-1 · μM^-1	–	–	–	–	–	–
B2	–	–	–	–	–	–	15.4 (±2.8) μM	27.3 (±1.9) s^-1	1.77 (±0.37) s^-1 · μM^-1	83.1 (±14.1) μM	0.14 (±0.01) s^-1	0.0016 (±0.0003) s^-1 · μM^-1
